The values that follow come from PMC11589570, “Critical assessment of LC3/GABARAP ligands used for degrader development and ligandability of LC3/GABARAP binding pockets” (Nature Communications, 2024).

Sequence of 1_(1-117) (human), Q9H0R8 (Q9H0R8 whole entry): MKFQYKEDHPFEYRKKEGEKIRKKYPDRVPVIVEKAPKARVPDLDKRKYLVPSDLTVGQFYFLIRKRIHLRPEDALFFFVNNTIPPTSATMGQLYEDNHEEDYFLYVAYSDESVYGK

This assay concerns the target 1_(1-117) (human), Q9H0R8. Briefly: FP. The settings on record: modification not given.
A word on the Ki: it is the dissociation constant of the complex between target and ligand, obtained from inhibition or displacement. Higher therefore signals a looser hold on the target. In turn, SDNSSGGDDDWTHLSSK [p62-LIR] displayed a Ki of 5.5 µM.
With LNSGVEYYWDQLNETV [AMBRA1-LIR] the figure was 163 µM; with AGLNSSWVELPMNSS [NIX-P2-LIR], 3.7 µM.
